{"source": "patent US20110038790A1", "about": "(ONCLAVE THERAPEUTICS, published 2011)", "binders": {"B1": {"name": "human AA amyloid (renal AA amyloid extract or tissue deposits) (other, UniProt P0DJI8 19-94, looked up)", "chain": "RSFFSFLGEAFDGARDMWRAYSDMREANYIGSDKYFHARGNYDAAKRGPGGAWAAEVITDARENIQRFFGHGAEDS", "notes": "Heterogeneous tissue-derived amyloid; also called human renal AA amyloid extract; human AA amyloid extract"}, "B2": {"name": "murine monoclonal antibody 2A4 (antibody, V domains shown)", "VH": "EVQLVESGGRLVQPKGSLKLSCAASGFTFNTYAMYWIRQAPGKGLEWVARIRSKSNNYAIYYADSVKDRFTIFRDDSQSMLYLQMNNLKTEDTAMYYCVRPYSDSFAYWGQGTLVTVSA", "VL": "DVVMTQTPLSLPVSLGDQASISCRSSQSLVHSTGNTYLHWYLQKPGQSPKLLIYKVSNRFSGVPDRFSGSGSGTYFTLKISRVEAEDLGVYFCSQSTHVPFTFGGGTKLEIK", "notes": "Mouse IgG2b kappa; Used as hybridoma culture supernatant or protein A-purified mAb; also called mAb 2A4; 2A4.20.44.77"}, "B3": {"name": "murine monoclonal antibody 8G9 (antibody, mouse IgG2b, V domains shown)", "VH": "B2 VH", "VL": "B2 VL", "notes": "Mouse IgG2b kappa; also called mAb 8G9; 8G9.3.4.51.22"}, "B4": {"name": "murine monoclonal antibody 7D8 (antibody, mouse IgG2b, V domains shown)", "VH": "B2 VH", "VL": "B2 VL with Q27L", "notes": "Mouse IgG2b kappa; also called mAb 7D8; 7D8.29.19.47"}, "B5": {"name": "murine AA amyloid (AA fibrils, amyloid enhancing factor extract or tissue deposits) (other, mouse, UniProt P05367 20-94, looked up)", "chain": "GFFSFIGEAFQGAGDMWRAYTDMKEAGWKDGDKYFHARGNYDAAQRGPGGVWAAEKISDARESFQEFFGRGHEDT", "notes": "Heterogeneous tissue-derived amyloid; also called Mouse AA (AEF); murine AA fibrils"}, "B6": {"name": "peptide 39, CGGHEDT (immunogen peptide EPRB-39) (peptide)", "peptide": "CGGHEDT", "notes": "also called p39; p#39"}, "B7": {"name": "peptide 41, GHEDTIADQE (peptide)", "peptide": "GHEDTIADQE", "notes": "also called p41; p#41"}}, "key": {"[1]": {"biological_target": "B2", "assay": "competition ELISA: human AA amyloid in solution against adsorbed mouse AA (AEF), mAb 2A4", "description": "(§1) To determine the effect, if any, of potential denaturation when adsorbed to the surface of the microtiter well, the reactivity of the 2A4, 8G9 and […] was evaluated using a competition ELISA in which murine or human AA amyloid extract was used as a soluble competitor for the interaction of the mAbs with surface-bound AA extract.\n(§2) In general, the murine AA (AEF) extract was a better competitor than the human AA (Table 6)."}, "[2]": {"biological_target": "B4", "assay": "competition ELISA: human AA amyloid in solution against adsorbed mouse AA (AEF), mAb 7D8", "description": "as §1, §2"}, "[3]": {"biological_target": "B3", "assay": "competition ELISA: human AA amyloid in solution against adsorbed mouse AA (AEF), mAb 8G9", "description": "as §1, §2"}, "peptide 40, CGGAEDS": {"biological_target": "T1, peptide 40, CGGAEDS", "T1 peptide": "CGGAEDS", "assay": "BIAcore analysis of peptide binding"}, "peptide 64, CGGAEDT": {"biological_target": "T2, peptide 64, CGGAEDT", "T2 peptide": "CGGAEDT", "assay": "BIAcore analysis of peptide binding"}, "peptide 67, CGGHEDA": {"biological_target": "T3, peptide 67, CGGHEDA", "T3 peptide": "CGGHEDA", "assay": "BIAcore analysis of peptide binding"}, "[4]": {"biological_target": "B6", "assay": "ELISA, purified mAb on adsorbed peptide 39"}, "peptide 41, GHEDTIADQE": {"biological_target": "B7", "assay": "ELISA, purified mAb on adsorbed peptide 41", "description": "(§3) Protein Mr markers (Std) are, form top to bottom: 176, 119, 75, 49, 39, 25 and 19 kDa. The interaction of the purified mAbs with immunizing peptide p#39, control peptide (p#41), murine and human AA extracts were determined by ELISA as described above.\n(§4) In contrast, even at the highest concentration of mAb used (100 nM) there was little detectable binding to the p#41 peptide (FIG. 33—Each point represents the mean±SE, (n=3 at each concentration)). […] The calculated EC50 values for the mAbs binding to mouse AA extract were essentially identical to those obtained when the p#39 peptide was used as the substrate (FIG. 34; Table 5). […] Because the EC50 value for 7D8 mAb binding was the lowest of the 3 antibodies tested, Applicants selected this reagent for in vivo co-localization and imaging studies. The 2 amino acid substitutions in the human SAA sequence with respect to the murine protein affected the EC50 values."}, "[5]": {"biological_target": "B5", "assay": "ELISA, purified mAb on adsorbed mouse AA (AEF)", "description": "as §3, §4"}, "[6]": {"biological_target": "B5", "assay": "ELISA, hybridoma culture supernatant on murine AA (AEF)", "text": "The interaction of 2A4, 8G9 and 7D8 mAbs with AA amyloid was initially tested by ELISA and the data, given in FIG. 31, analyzed using SigmaPlot (SPSS Inc.). Each point represents the mean±SE (n=3). A culture supernatant from an irrelevant hybridoma was used as a control (Ctrl Culture Sup). […] (In addition, the immunohistochemical reactivity of the day 1 material was greater than the day 2 samples). […] Because of the low signal and high variability found with the culture supernatants and to determine more accurately the relative binding affinity of the mAbs for murine and human AA amyloid fibrils (as well as to provide material for in vivo biodistribution studies) it was necessary to isolate the mAbs by protein A affinity chromatography. The purity of the isolated mAbs was established SDS-PAGE using 10% acrylamide gels under reducing and non-reducing conditions (FIG. 32). Samples in lanes 1-4 treated with mercaptoethanol, lanes 5-9 without. Gel was stained with Coomassie blue: mAb 8G9, lanes 1 and 6; mAb 2A4, lanes 2 and 7; mAb 7D8, lanes 3 and 8; SP2/0 control supernatant, lanes 4 and 9; blank, lane 5. Protein Mr markers (Std) are, form top to bottom: 176, 119, 75, 49, 39, 25 and 19 kDa. The interaction of the purified mAbs with immunizing peptide p#39, control peptide (p#41), murine and human AA extracts were determined by ELISA as described above."}, "[7]": {"biological_target": "B1", "assay": "ELISA, purified mAb on adsorbed human AA amyloid extract", "description": "as §3, §4"}, "[8]": {"biological_target": "B2", "assay": "competition ELISA: mouse AA (AEF) in solution against adsorbed human AA amyloid extract, mAb 2A4", "description": "as §1, §2"}, "[9]": {"biological_target": "B4", "assay": "competition ELISA: mouse AA (AEF) in solution against adsorbed human AA amyloid extract, mAb 7D8", "description": "as §1, §2"}, "[10]": {"biological_target": "B3", "assay": "competition ELISA: mouse AA (AEF) in solution against adsorbed human AA amyloid extract, mAb 8G9", "description": "as §1, §2"}, "[11]": {"biological_target": "B3", "assay": "immunohistochemistry with peptide inhibition, human ovarian tissue"}, "[12]": {"biological_target": "B2", "assay": "immunohistochemistry, supernatant (1:25) preincubated with peptide"}, "[13]": {"biological_target": "B4", "assay": "SPR competition, 7D8 with p39 at 1 µg/mL over immobilized Vλ6 Wil fibrils"}, "[14]": {"biological_target": "B2", "assay": "immunohistochemistry, preincubation of 2A4 supernatant with peptide before staining murine AA amyloid", "text": "The reactivity of supernatants from hybridomas expressing antibodies 2A4, 8G9 and 7D8 to murine AA splenic and hepatic amyloid deposits (the principal sites of amyloid deposition) was documented immunohistochemically. For these studies, sections of tissue harvested from a TRIAD mouse with extensive AA amyloid in the liver and spleen (as evidenced by green birefringent Congophilic deposits) were stained with the mAb-containing supernatants. All 3 bound to the hepatic and splenic amyloid. In contrast, there was no reactivity with culture supernatants derived from irrelevant hybridomas. The capability of the amyloid using 2A4, 8G9 and 7D8 to immunostain amyloid in fresh (unfixed), OCT-embedded murine liver and spleen was tested. There was evidence that the mAbs retained their ability to bind AA amyloid in the hepatic sinusoid. In addition, the antibody reactivity with splenic tissue was easier to interpret, and the perifollicular amyloid was intensely immunostained. […] In contrast, the p#41 peptide was ineffective."}}, "note": "Where a chain is given by its changes, count along the chain named."}
{"binder": "B1", "values": [{"measurement": "IC50", "setting": "[1]", "value": "> 212", "unit": "µg/mL"}, {"measurement": "IC50", "setting": "[2]", "value": "> 881", "unit": "µg/mL"}, {"measurement": "IC50", "setting": "[3]", "value": "> 120", "unit": "µg/mL"}]}
{"binder": "B2", "values": [{"measurement": "binding result", "setting": "peptide 40, CGGAEDS", "value": "binds"}, {"measurement": "binding result", "setting": "peptide 64, CGGAEDT", "value": "binds"}, {"measurement": "binding result", "setting": "peptide 67, CGGHEDA", "value": "binds"}, {"measurement": "EC50", "setting": "[4]", "value": 3.4, "unit": "nM"}, {"measurement": "EC50", "setting": "peptide 41, GHEDTIADQE", "value": "> 100", "unit": "nM"}, {"measurement": "EC50", "setting": "[5]", "value": 4.09, "unit": "nM"}, {"measurement": "dilution of culture supernatant after which reactivity is absent", "setting": "[6]", "value": "~64 dilution factor (1:x)"}, {"measurement": "EC50", "setting": "[7]", "value": 26.4, "unit": "nM"}]}
{"binder": "B3", "values": [{"measurement": "EC50", "setting": "[4]", "value": 4, "unit": "nM"}, {"measurement": "EC50", "setting": "peptide 41, GHEDTIADQE", "value": "> 100", "unit": "nM"}, {"measurement": "EC50", "setting": "[5]", "value": 5.64, "unit": "nM"}, {"measurement": "dilution of culture supernatant after which reactivity is absent", "setting": "[6]", "value": "~64 dilution factor (1:x)"}, {"measurement": "EC50", "setting": "[7]", "value": 31.7, "unit": "nM"}]}
{"binder": "B4", "values": [{"measurement": "binding result", "setting": "peptide 40, CGGAEDS", "value": "binds"}, {"measurement": "binding result", "setting": "peptide 64, CGGAEDT", "value": "binds"}, {"measurement": "binding result", "setting": "peptide 67, CGGHEDA", "value": "binds"}, {"measurement": "EC50", "setting": "[4]", "value": 2.3, "unit": "nM"}, {"measurement": "EC50", "setting": "peptide 41, GHEDTIADQE", "value": "> 100", "unit": "nM"}, {"measurement": "EC50", "setting": "[5]", "value": 1.84, "unit": "nM"}, {"measurement": "dilution of culture supernatant after which reactivity is absent", "setting": "[6]", "value": "~64 dilution factor (1:x)"}, {"measurement": "EC50", "setting": "[7]", "value": 13.3, "unit": "nM"}]}
{"binder": "B5", "values": [{"measurement": "IC50", "setting": "[8]", "value": 14.7, "unit": "µg/mL"}, {"measurement": "IC50", "setting": "[9]", "value": 26.8, "unit": "µg/mL"}, {"measurement": "IC50", "setting": "[10]", "value": 17.3, "unit": "µg/mL"}]}
{"binder": "B6", "values": [{"measurement": "binding result", "setting": "[11]", "value": "binds"}, {"measurement": "binding result", "setting": "[12]", "value": "binds"}, {"measurement": "fold decrease in the extent of binding of 7D8 to Vλ6 Wil fibrils", "setting": "[13]", "value": "> 2", "unit": "fold"}]}
{"binder": "B7", "values": [{"measurement": "binding result", "setting": "[14]", "value": "no binding (tested: 50 µg/mL)"}]}
